From article doi:10.1101/2022.07.22.500997 (bioRxiv, 2022)

How the values were obtained:
[1] = target: Dg_(GH172b) (HMPREF9455_02471), DUF2961 / GH172 exo-D-arabinofuranosidase from Dysgonomonas gadei (Dysgonomonas gadei) (UniProt F5IZF4); experiment: SEC-MALS
[2] = target: Myc_(GH172) (GII36_05205), DUF2961 / GH172 enzyme from Candidatus Mycosynbacter amalyticus (Candidatus Mycosynbacter amalyticus); experiment: SEC-MALS
[3] = target: Dg_(GH172a) (HMPREF9455_02467), DUF2961 / GH172 exo-D-arabinofuranosidase from Dysgonomonas gadei (Dysgonomonas gadei) (UniProt F5IZF0); experiment: SEC-MALS
[4] = target: Dg_(GH172c) (HMPREF9455_02479), DUF2961 / GH172 exo-D-arabinofuranosidase from Dysgonomonas gadei (Dysgonomonas gadei) (UniProt F5IZG2); experiment: SEC-MALS
[5] = target: Dg_(GH172c) (HMPREF9455_02479), DUF2961 / GH172 exo-D-arabinofuranosidase from Dysgonomonas gadei (Dysgonomonas gadei) (UniProt F5IZG2); experiment: crystal structure
SEC-MALS = target: the molecule itself; experiment: SEC-MALS

“Dg_(GH172b) (HMPREF9455_02471), DUF2961 / GH172 exo-D-arabinofuranosidase from Dysgonomonas gadei (from UniProt F5IZF4 1-643) (enzyme)” was tested, and the stoichiometry N [1] was 2.

Molecule “Myc_(GH172) (GII36_05205), DUF2961 / GH172 enzyme from Candidatus Mycosynbacter amalyticus” has a stoichiometry N [2] of 3.

With “Dg_(GH172a) (HMPREF9455_02467), DUF2961 / GH172 exo-D-arabinofuranosidase from Dysgonomonas gadei (from UniProt F5IZF0 1-386) (enzyme)” the stoichiometry N [3] was 12.

With “Dg_(GH172c) (HMPREF9455_02479), DUF2961 / GH172 exo-D-arabinofuranosidase from Dysgonomonas gadei (from UniProt F5IZG2 1-402) (enzyme)” the stoichiometry N [4] was 6 and the stoichiometry N [5] was 6.

B1: Noc_(GH172) (O3I_017420), DUF2961 / GH172 enzyme from Nocardia brasiliensis (enzyme)
chain: MTPPRRSELWLLDDTRTRSVSAENPTGAPGGGARATTGTGAHAARLLGPGWKISPSIVLGDGETATLADVSGPGVLRHCWLTTDRAALRELTLRMYWDDAAEPAIDVPLGDFFCNGWDELALVDSEMVVVAPAGGLNSYWPMPFRRRARITLENHCGRSVPVYYQITYGEEDVPGEAGYLHARWSRSAPLGSPAVHTLLDTGPARGRYVGTYLAIRPGAPRWWGEGEMKFYLDGDDEYPTLCGTGTEDYFGGAWNFDMDGKYRTYSTAYLGLPQALPADEIYQAHQRFGMYRWHVHDPICFHRELRVTVQGLGWRDSDTYLPLEDAEIATTVWWYQEVPPSG
For B1, the “stoichiometry N” value (SEC-MALS) was 3.
